Measurements published in patent publication US20170182124A1, “FGF21 Derivatives and Uses Thereof” (Novo Nordisk A/S, priority 2014, published 2017).
Positions count from the first letter of the chain named. Marks after values point to notes of the source that are not given here.

B1: S{Beta-179}-[2-[2-[[2-[2-[2-[[2-[2-[2-[[(4S)-4-carboxy-4-(15-carboxypentadecanoyl-amino)butanoyl]amino]ethoxy]ethoxy]acetyl]amino]ethoxy]ethoxy]acetyl]amino]-ethylamino]-2-oxoethyl]-Ala[Gln121,Leu168, … (protein)
chain: HPIPDSSPLLQFGGQVRQRYLYTDDAQQTEAHLEIREDGTVGGAADQSPESLLQLKALKPGVIQILGVKTSRFLCQRPDGALYGSLHFDPEACSFRELLLEDGYNVYQSEAHGLPLHLPGQKSPHRDPAPRGPARFLPLPGLPPALPEPPGILAPQPPDVGSSDPLSLVGPSQGRSPSCAS
B2: S{Beta-181}-[2-[2-[[2-[2-[2-[[2-[2-[2-[[(4S)-4-carboxy-4-(19-carboxynonadecanoyl-amino)butanoyl]amino]ethoxy]ethoxy]acetyl]amino]ethoxy]ethoxy]acetyl]amino]-ethylamino]-2-oxoethyl]-Ala[Gln121,Leu168,C … (protein)
chain: B1 chain with C179Y, S181C
B3: S{Beta-180}-[2-[2-[[2-[2-[2-[[2-[2-[2-[[(4S)-4-carboxy-4-(19-carboxynonadecanoyl-amino)butanoyl]amino]ethoxy]ethoxy]acetyl]amino]ethoxy]ethoxy]acetyl]amino]-ethylamino]-2-oxoethyl]-Ala[Gln121,Leu168,C … (protein)
chain: B1 chain with C179Y, A180C
B4: S{Beta-180}-2-aminoethylsulfanyl-Ala[Gln121, Leu168, Cys180, des181]FGF21 (protein)
chain: AHPIPDSSPLLQFGGQVRQRYLYTDDAQQTEAHLEIREDGTVGGAADQSPESLLQLKALKPGVIQILGVKTSRFLCQRPDGALYGSLHFDPEACSFRELLLEDGYNVYQSEAHGLPLHLPGQKSPHRDPAPRGPARFLPLPGLPPALPEPPGILAPQPPDVGSSDPLSLVGPSQGRSPSYC
modifications: N-terminal Ala; cysteamine disulfide on Cys180
B5: S{Beta-178}-2-aminoethylsulfanyl-Ala[Gln121, Leu168, Cys178]FGF21 (protein)
chain: AHPIPDSSPLLQFGGQVRQRYLYTDDAQQTEAHLEIREDGTVGGAADQSPESLLQLKALKPGVIQILGVKTSRFLCQRPDGALYGSLHFDPEACSFRELLLEDGYNVYQSEAHGLPLHLPGQKSPHRDPAPRGPARFLPLPGLPPALPEPPGILAPQPPDVGSSDPLSLVGPSQGRSPCYAS
modifications: N-terminal Ala; cysteamine disulfide on Cys178
B6: S{Beta-176}-2-aminoethylsulfanyl-Ala[Gln121, Leu168, Cys176]FGF21 (protein)
chain: B5 chain with S177C, C179S
modifications: cysteamine-protected Cys176
B7: Ala[Gln121, Leu168]FGF21 (protein)
chain: B5 chain with C179S
modifications: N-terminal Ala
B8: S{Beta-179}-2-aminoethylsulfanyl-Ala[Gln121, Leu168, Cys179]FGF21 (protein)
chain: B5 chain with C179S, Y180C
modifications: N-terminal Ala; cysteamine disulfide on Cys179
B9: S{Beta-180}-[2-[2-[[2-[2-[2-[[2-[2-[2-[[(4S)-4-carboxy-4-(17-carboxyheptadecanoyl-amino)butanoyl]amino]ethoxy]ethoxy]acetyl]amino]ethoxy]ethoxy]acetyl]amino]-ethylamino]-2-oxoethyl]-Ala[Gln121,Leu168, … (protein)
chain: HPIPDSSPLLQFGGQVRQRYLYTDDAQQTEAHLEIREDGTVGGAADQSPESLLQLKALKPGVIQILGVKTSRFLCQRPDGALYGSLHFDPEACSFRELLLEDGYNVYQSEAHGLPLHLPGQKSPHRDPAPRGPARFLPLPGLPPALPEPPGILAPQPPDVGSSDPLSLVGPSQGRSPSYC
B10: S{Beta-181}-[2-[2-[[2-[2-[2-[[2-[2-[2-[[(4S)-4-carboxy-4-(11-carboxyundecanoyl-amino)butanoyl]amino]ethoxy]ethoxy]acetyl]amino]ethoxy]ethoxy]acetyl]amino]-ethylamino]-2-oxoethyl]-Ala[Gln121,Leu168,Cys … (protein)
chain: B1 chain with C179Y, S181C
B11: S{Beta-181}-[2-[2-[[2-[2-[2-[[2-[2-[2-[[(4S)-4-carboxy-4-(17-carboxyheptadecanoyl-amino)butanoyl]amino]ethoxy]ethoxy]acetyl]amino]ethoxy]ethoxy]acetyl]amino]-ethylamino]-2-oxoethyl]-Met[Cys181]FGF21 (protein)
chain: B5 chain with A1M, Q122N, L169M, C179S, S182C

Target: 3T3-L1 adipocytes (Mus musculus, UniProt P16092+Q99N32)
Test: Glucose uptake in 3T3-L1 adipocytes
Type: cell-based
Conditions: stimulated 20 hours, 3H-deoxy-glucose
Protocol: The C-terminal modified analogues were tested for their ability to increase glucose uptake in 3T3-L1 mouse adipocytes. The following assay was used for determining the biological activity, or potency, of FGF21 analogues and derivatives of the invention.
The in vitro potency may also be determined in an assay with mouse 3T3-L1 adipocytes by testing the FGF21 analogues and derivatives for their ability to increase glucose uptake into adipocytes. Differentiated 3T3-L1 adipocytes endogenously express FGFR1c and BKL. The 3T3-L1 cells are unresponsive to FGF21 until after differentiated as differentiation lead to expression of the co-receptor BKL. Activation of the FGFR1 receptor/BKL complex increase the expression of glucose transporter 1 (GLUT1) and therefore FGF21 agonists will lead to an increased amount of glucose taken into the adipocytes in a dose responsive manner.
Mouse 3T3-L1 fibroblasts (e.g. available from ATCC, catalogue no. CL-173) were maintained in basal medium (DMEM (4500 mg/I Glucose) with 10% Fetal Bovine Serum (FBS) and 1% Penicillin/Streptomycin). The cells are not allowed to reach confluence and should be passed (transferred to new vials) before reaching approx. 60% of confluency (by visual inspection).
For the glucose uptake assay, cells were 15.000 cells/well in a 96 well plate (BIOCOAT), and when they reached confluency (high density, with a view to have differentiated adipose cells made), the medium was changed from basal medium to basal medium containing Troglitazone, IBMX, Dexamethasone (commercially available from, e.g., Sigma) and human insulin (commercially available from, e.g., Novo Nordisk A/S).
The cells were used 7-9, days after initiation of differentiation. The cells were stimulated with increasing concentrations (0-300 nM) of the FGF21 analogues or derivatives of the invention for 20 hours in basal medium. Before addition of 3H-deoxy-glucose (in what follows: the tracer) the cells were washed in warm (approximately 37° C.) assay buffer (PBS with 1 mM MgCl2 and 2 mM CaCl2), HEPES and 0.1% Human serum albumin) and the cells were incubated with the tracer for 1 hour. This incubation was terminated by washing twice in ice cold assay buffer. The cells were lysed with Triton X-100 and lysates transferred to a 96 wells plate, microscint-40 (commercially available from, e.g., Perkin Elmer) was added and amount of tracer counted in a TOP-counter (e.g. a Packard top-counter from Perkin Elmer). The EC50 and Emax of the FGF21 compound in question were calculated. The results which are shown in tables 4-5 below indicate the EC50 (potency) and Emax (efficacy) of the FGF21 analogues and derivatives, respectively.

Chain of 3T3-L1 adipocytes (Q99N32 whole entry): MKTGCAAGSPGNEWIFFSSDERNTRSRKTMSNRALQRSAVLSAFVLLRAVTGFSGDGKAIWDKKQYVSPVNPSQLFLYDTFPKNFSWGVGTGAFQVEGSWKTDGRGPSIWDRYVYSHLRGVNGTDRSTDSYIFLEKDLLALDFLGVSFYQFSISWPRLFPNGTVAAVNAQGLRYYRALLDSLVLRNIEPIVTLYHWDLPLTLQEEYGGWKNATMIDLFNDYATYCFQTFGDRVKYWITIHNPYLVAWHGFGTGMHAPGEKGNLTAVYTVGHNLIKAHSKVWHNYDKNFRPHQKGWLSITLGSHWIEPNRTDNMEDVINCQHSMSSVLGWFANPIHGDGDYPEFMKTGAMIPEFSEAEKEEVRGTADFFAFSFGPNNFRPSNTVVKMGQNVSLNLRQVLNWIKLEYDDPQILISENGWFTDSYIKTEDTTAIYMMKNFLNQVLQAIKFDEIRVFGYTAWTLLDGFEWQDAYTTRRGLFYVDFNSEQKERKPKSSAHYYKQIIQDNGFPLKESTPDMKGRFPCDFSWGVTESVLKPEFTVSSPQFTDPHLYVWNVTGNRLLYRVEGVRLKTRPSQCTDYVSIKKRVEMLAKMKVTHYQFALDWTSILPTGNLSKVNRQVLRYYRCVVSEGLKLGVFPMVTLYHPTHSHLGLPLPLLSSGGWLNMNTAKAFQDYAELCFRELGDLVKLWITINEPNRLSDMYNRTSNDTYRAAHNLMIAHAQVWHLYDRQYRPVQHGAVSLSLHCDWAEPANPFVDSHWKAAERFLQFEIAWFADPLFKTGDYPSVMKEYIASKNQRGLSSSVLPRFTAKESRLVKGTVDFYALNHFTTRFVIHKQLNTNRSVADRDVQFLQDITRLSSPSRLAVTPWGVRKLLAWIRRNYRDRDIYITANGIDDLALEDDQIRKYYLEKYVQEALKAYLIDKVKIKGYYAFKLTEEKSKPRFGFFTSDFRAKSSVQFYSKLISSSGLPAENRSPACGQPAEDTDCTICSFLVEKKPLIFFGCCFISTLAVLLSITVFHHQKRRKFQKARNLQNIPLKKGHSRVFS
Chain of 3T3-L1 adipocytes (P16092 22-822): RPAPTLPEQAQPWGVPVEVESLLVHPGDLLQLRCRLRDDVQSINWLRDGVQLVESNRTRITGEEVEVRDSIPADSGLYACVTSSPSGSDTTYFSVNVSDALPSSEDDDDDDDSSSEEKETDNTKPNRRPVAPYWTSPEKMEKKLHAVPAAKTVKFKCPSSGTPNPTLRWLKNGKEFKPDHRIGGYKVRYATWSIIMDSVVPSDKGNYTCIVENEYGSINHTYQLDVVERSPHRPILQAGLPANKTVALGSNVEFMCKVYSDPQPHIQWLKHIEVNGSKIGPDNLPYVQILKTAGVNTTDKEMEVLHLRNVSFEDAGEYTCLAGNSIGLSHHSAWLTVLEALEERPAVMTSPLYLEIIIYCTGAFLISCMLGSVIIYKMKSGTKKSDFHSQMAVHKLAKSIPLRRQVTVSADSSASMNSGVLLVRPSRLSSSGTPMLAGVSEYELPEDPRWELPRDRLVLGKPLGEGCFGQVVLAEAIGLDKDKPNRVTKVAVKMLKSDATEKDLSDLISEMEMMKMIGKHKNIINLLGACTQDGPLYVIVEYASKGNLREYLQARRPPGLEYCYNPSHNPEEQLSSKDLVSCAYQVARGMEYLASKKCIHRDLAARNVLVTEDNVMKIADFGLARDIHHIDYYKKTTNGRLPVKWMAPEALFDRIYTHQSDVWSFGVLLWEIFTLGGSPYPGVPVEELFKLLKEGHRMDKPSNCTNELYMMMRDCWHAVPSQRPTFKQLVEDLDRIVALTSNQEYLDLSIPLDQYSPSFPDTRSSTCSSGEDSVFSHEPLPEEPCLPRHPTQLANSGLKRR

Compared with B1, B2 is 3.8-fold higher in EC50: 107 nM for the first, 410 nM for the second. The first is the more potent here.

First: B3
Second: B4
The EC50 of the first is 3-fold lower: 24 nM for the first, 73 nM for the second. The first is the more potent here.

B5 and B6 are within 1.5-fold of each other in EC50: 50 nM for the first, 73 nM for the second.

First: B7
Second: B8
The EC50 of the first is 8.1-fold lower: 3.1 nM for the first, 25 nM for the second.

B9 showed an EC50 of 8 nM.

Going from B1 to B2, the “Glucose uptake Emax” value rises from 54% to 57%.

Going from B3 to B4, the “Glucose uptake Emax” value rises from 53% to 72%.

First: B5
Second: B6
The “Glucose uptake Emax” value of the first is lower: 69% for the first, 84% for the second.

Going from B7 to B8, the “Glucose uptake Emax” value falls from 85% to 77%.

With B9 the “Glucose uptake Emax” value was 71%.

Tested on: not listed separately
Test: Body weight reduction in lean mice
Type: in vivo, lean C57BL mice
Conditions: s.c. 1 mg/kg BID for 7 days, change from baseline day 1 to 7
Protocol: In order to determine the in vivo potency of the FGF21 derivatives the effect on body weight was studied in lean C57BL mice after subcutaneous (s.c.) administration. It has previously been shown that the weight loss induced by FGF21 in lean mice is predictive of the effect in obese mice and therefore lean mice are considered a good screening model.
The compounds were administered s.c. 1 mg/kg either once (QD) or twice (BID) daily in 10 mM phosphate, 2% (w/vol) glycerol, 500ppm (=0.05%) polysorbate 80, pH=8.15, (2 ml/kg) for 7 days (n=7-8). The respective vehicle treated groups (control) were treated with 10 mM phosphate, 2% (w/vol) glycerol, 500ppm (=0.05%) polysorbate 80, pH=8.15, (2 ml/kg) s.c. twice daily for 7 days (n=6-8). Body weight was measured before dosing and again after 7 days treatment.

For B10, the “Mean Δ body weight (%)” value was 0.04%.

In the case of B7, the “Mean Δ body weight (%)” value is reported as −1.98** %.

Target: FGF receptor/BKL complex
Test: FGF receptor potency in an Erk phosphorylation assay in HEK293 overexpressing human BKL
Type: cell-based
Conditions: HEK293/BKL cells, pERK after 12 minutes, absence of HSA; read-out: EC50
Outline: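 pERK after 12 min analogue exposure at 37° C. was quantified by AlphaScreen SureFire in lysates of beta-klotho-transfected HEK293 cells. Assay medium was DMEM with 0.02% Tween20, run both without albumin and with 0.1% final HSA to probe albumin binding. Cells were starved 2 h in basal medium first. Absolute EC50 reported.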

Chain of FGF receptor/BKL complex (Q86Z14 whole entry, one chain of several): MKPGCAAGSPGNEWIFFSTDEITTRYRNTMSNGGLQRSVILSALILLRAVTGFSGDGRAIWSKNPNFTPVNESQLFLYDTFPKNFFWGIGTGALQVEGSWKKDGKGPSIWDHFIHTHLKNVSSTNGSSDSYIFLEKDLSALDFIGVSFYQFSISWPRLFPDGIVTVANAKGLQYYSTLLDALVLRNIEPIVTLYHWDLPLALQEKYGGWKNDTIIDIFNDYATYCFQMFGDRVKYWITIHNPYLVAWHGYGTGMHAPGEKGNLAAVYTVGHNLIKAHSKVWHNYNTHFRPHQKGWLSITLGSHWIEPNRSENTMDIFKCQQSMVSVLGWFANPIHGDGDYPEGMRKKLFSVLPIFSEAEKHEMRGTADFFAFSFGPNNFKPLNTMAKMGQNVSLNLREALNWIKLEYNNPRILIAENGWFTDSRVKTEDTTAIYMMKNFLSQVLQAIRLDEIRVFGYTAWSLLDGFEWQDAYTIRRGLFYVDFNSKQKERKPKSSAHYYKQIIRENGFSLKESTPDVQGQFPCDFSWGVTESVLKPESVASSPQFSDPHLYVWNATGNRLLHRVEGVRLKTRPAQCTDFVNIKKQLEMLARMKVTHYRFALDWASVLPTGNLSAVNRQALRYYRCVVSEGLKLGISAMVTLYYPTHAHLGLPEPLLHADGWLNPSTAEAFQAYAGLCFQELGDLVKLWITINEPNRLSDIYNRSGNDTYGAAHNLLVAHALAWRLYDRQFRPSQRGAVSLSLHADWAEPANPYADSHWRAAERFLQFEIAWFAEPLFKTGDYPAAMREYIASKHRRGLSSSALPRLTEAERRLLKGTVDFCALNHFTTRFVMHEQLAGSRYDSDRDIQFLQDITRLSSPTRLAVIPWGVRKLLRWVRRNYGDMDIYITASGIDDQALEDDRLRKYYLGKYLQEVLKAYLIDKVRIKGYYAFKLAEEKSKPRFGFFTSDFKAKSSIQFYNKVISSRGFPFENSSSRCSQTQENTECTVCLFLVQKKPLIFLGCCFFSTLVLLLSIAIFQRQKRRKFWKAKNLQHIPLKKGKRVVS

Going from B1 to B2, the EC50 falls from 107 nM to 58 nM (1.8-fold).

Going from B3 to B10, the EC50 rises from 5 nM to 154 nM (31-fold).

Compared with B4, B5 is 5.2-fold higher in EC50: 20 nM for the first, 105 nM for the second.

Compared with B6, B7 is 110-fold lower in EC50: 227 nM for the first, 2 nM for the second. The second is the more potent here.

Going from B8 to B9, the EC50 falls from 69 nM to 8 nM (8.6-fold).

Same assay, conditions: HEK293/BKL cells, pERK after 12 minutes, presence of 0.1% HSA; read-out: EC50 (0.1% HSA)

Compared with B1, B2 is 3.2-fold higher in EC50: 134 nM for the first, 434 nM for the second.

B3 and B10 are within 1.5-fold of each other in EC50: 133 nM for the first, 137 nM for the second.

B9 showed an EC50 of 20 nM.

Tested on: not listed separately
Test: Pharmacokinetic study in mice (i.v.)
Conditions: terminal half-life, single intravenous dose of 20 mg/kg, lean C57bl mice
Protocol: This was done in a pharmacokinetic (PK) study, where the terminal half-life of the analogue in question was determined. By terminal half-life is meant the time it takes to halve a certain plasma concentration in the terminal elimination phase.
The pharmacokinetic profile of FGF21 analogues was tested in normal lean C57b1 mice, n =2-3 (approximately 30 grams). FGF21 compounds were dosed as a single intravenous dose of 20 mg/kg (approximately 5 ml/kg).
The plasma levels of the FGF21 compounds were determined using Fibroblast Growth Factor-21 Human ELISA (available from BioVendor, catalogue no. RD191108200R). The PC based software, WnNonLin version 6.3 from Pharsight Corportion, Cary N.C., was used for the pharmacokinetic calculation.

Going from B2 to B10, the Half-life mice falls from 19 h to 1 h (19-fold).

With B11 the Half-life mice was 12 h.
